For 6 molecules, percent of parent results are on record in article PMC3438196.

The target of assay [1] is T1, codon optimized Vif SLQ144-146AAA MAPPIT prey (pMG2-VifoptSLQ), P12504. The assay can be described thus: MAPPIT. Particulars: chain shown with the change.
The target of assay [2] is T1, codon optimized Vif SLQ144-146AAA …. Put plainly: MAPPIT. Conditions: chain shown with the change. This is another data set of the same source.

B1: Apobec3G-GFP MAPPIT bait (pCEL-Apobec3G-GFP), Q9HC16 R30L (protein)
chain: MKPHFRNTVERMYRDTFSYNFYNRPILSRLNTVWLCYEVKTKGPSRPPLDAKIFRGQVYSELKYHPEMRFFHWFSKWRKLHRDQEYEVTWYISWSPCTKCTRDMATFLAEDPKVTLTIFVARLYYFWDPDYQEALRSLCQKRDGPRATMKIMNYDEFQHCWSKFVYSQRELFEPWNNLPKYYILLHIMLGEILRHSMDPPTFTFNFNNEPWVRGRHETYLCYEVERMHNDTWVLLNQRRGFLCNQAPHKHGFLEGRHAELCFLDVIPFWKLDLDQDYRVTCFTSWSPCFSCAQEMAKFISKNKHVSLCIFTARIYDDQGRCQEGLRTLAEAGAKISIMTYSEFKHCWDTFVDHQGCPFQPWDGLDEHSQDLSGRLRAILQNQEN
Turning to B1, the percent of parent in assay [1] and in assay [2] was 21 % of WT throughout.

B2: Apobec3G-GFP MAPPIT bait (pCEL-Apobec3G-GFP), Q9HC16 K79M (protein)
chain: MKPHFRNTVERMYRDTFSYNFYNRPILSRRNTVWLCYEVKTKGPSRPPLDAKIFRGQVYSELKYHPEMRFFHWFSKWRMLHRDQEYEVTWYISWSPCTKCTRDMATFLAEDPKVTLTIFVARLYYFWDPDYQEALRSLCQKRDGPRATMKIMNYDEFQHCWSKFVYSQRELFEPWNNLPKYYILLHIMLGEILRHSMDPPTFTFNFNNEPWVRGRHETYLCYEVERMHNDTWVLLNQRRGFLCNQAPHKHGFLEGRHAELCFLDVIPFWKLDLDQDYRVTCFTSWSPCFSCAQEMAKFISKNKHVSLCIFTARIYDDQGRCQEGLRTLAEAGAKISIMTYSEFKHCWDTFVDHQGCPFQPWDGLDEHSQDLSGRLRAILQNQEN
In the case of B2, the percent of parent in assay [2] was 56 % of WT.

B3: Apobec3G-GFP MAPPIT bait (pCEL-Apobec3G-GFP), Q9HC16 R102G (protein)
chain: MKPHFRNTVERMYRDTFSYNFYNRPILSRRNTVWLCYEVKTKGPSRPPLDAKIFRGQVYSELKYHPEMRFFHWFSKWRKLHRDQEYEVTWYISWSPCTKCTGDMATFLAEDPKVTLTIFVARLYYFWDPDYQEALRSLCQKRDGPRATMKIMNYDEFQHCWSKFVYSQRELFEPWNNLPKYYILLHIMLGEILRHSMDPPTFTFNFNNEPWVRGRHETYLCYEVERMHNDTWVLLNQRRGFLCNQAPHKHGFLEGRHAELCFLDVIPFWKLDLDQDYRVTCFTSWSPCFSCAQEMAKFISKNKHVSLCIFTARIYDDQGRCQEGLRTLAEAGAKISIMTYSEFKHCWDTFVDHQGCPFQPWDGLDEHSQDLSGRLRAILQNQEN
Turning to B3, the percent of parent in assay [1] and in assay [2] was 44 % of WT in each case.

B4: Apobec3G-GFP MAPPIT bait (pCEL-Apobec3G-GFP), Q9HC16 H81L (protein)
chain: MKPHFRNTVERMYRDTFSYNFYNRPILSRRNTVWLCYEVKTKGPSRPPLDAKIFRGQVYSELKYHPEMRFFHWFSKWRKLLRDQEYEVTWYISWSPCTKCTRDMATFLAEDPKVTLTIFVARLYYFWDPDYQEALRSLCQKRDGPRATMKIMNYDEFQHCWSKFVYSQRELFEPWNNLPKYYILLHIMLGEILRHSMDPPTFTFNFNNEPWVRGRHETYLCYEVERMHNDTWVLLNQRRGFLCNQAPHKHGFLEGRHAELCFLDVIPFWKLDLDQDYRVTCFTSWSPCFSCAQEMAKFISKNKHVSLCIFTARIYDDQGRCQEGLRTLAEAGAKISIMTYSEFKHCWDTFVDHQGCPFQPWDGLDEHSQDLSGRLRAILQNQEN
For the molecule B4, the percent of parent in assay [2] is 53 % of WT.

B5: Apobec3G-GFP MAPPIT bait (pCEL-Apobec3G-GFP), Q9HC16 R78W (protein)
chain: MKPHFRNTVERMYRDTFSYNFYNRPILSRRNTVWLCYEVKTKGPSRPPLDAKIFRGQVYSELKYHPEMRFFHWFSKWWKLHRDQEYEVTWYISWSPCTKCTRDMATFLAEDPKVTLTIFVARLYYFWDPDYQEALRSLCQKRDGPRATMKIMNYDEFQHCWSKFVYSQRELFEPWNNLPKYYILLHIMLGEILRHSMDPPTFTFNFNNEPWVRGRHETYLCYEVERMHNDTWVLLNQRRGFLCNQAPHKHGFLEGRHAELCFLDVIPFWKLDLDQDYRVTCFTSWSPCFSCAQEMAKFISKNKHVSLCIFTARIYDDQGRCQEGLRTLAEAGAKISIMTYSEFKHCWDTFVDHQGCPFQPWDGLDEHSQDLSGRLRAILQNQEN
Consider B5, for which the percent of parent in assay [2] was 16 % of WT.

B6: Apobec3G-GFP MAPPIT bait (pCEL-Apobec3G-GFP), Q9HC16 R122C (protein)
chain: MKPHFRNTVERMYRDTFSYNFYNRPILSRRNTVWLCYEVKTKGPSRPPLDAKIFRGQVYSELKYHPEMRFFHWFSKWRKLHRDQEYEVTWYISWSPCTKCTRDMATFLAEDPKVTLTIFVACLYYFWDPDYQEALRSLCQKRDGPRATMKIMNYDEFQHCWSKFVYSQRELFEPWNNLPKYYILLHIMLGEILRHSMDPPTFTFNFNNEPWVRGRHETYLCYEVERMHNDTWVLLNQRRGFLCNQAPHKHGFLEGRHAELCFLDVIPFWKLDLDQDYRVTCFTSWSPCFSCAQEMAKFISKNKHVSLCIFTARIYDDQGRCQEGLRTLAEAGAKISIMTYSEFKHCWDTFVDHQGCPFQPWDGLDEHSQDLSGRLRAILQNQEN
Consider B6, for which the percent of parent in assay [1] is 16 % of WT.
